Values quoted from earlier work in PMC2919054.
pKd: −log10 of the molar value.

Target: ILT7 (Homo sapiens) (UniProt P59901)
Experiment: SPR

Sequence of UniProt P59901 (P59901 24-499): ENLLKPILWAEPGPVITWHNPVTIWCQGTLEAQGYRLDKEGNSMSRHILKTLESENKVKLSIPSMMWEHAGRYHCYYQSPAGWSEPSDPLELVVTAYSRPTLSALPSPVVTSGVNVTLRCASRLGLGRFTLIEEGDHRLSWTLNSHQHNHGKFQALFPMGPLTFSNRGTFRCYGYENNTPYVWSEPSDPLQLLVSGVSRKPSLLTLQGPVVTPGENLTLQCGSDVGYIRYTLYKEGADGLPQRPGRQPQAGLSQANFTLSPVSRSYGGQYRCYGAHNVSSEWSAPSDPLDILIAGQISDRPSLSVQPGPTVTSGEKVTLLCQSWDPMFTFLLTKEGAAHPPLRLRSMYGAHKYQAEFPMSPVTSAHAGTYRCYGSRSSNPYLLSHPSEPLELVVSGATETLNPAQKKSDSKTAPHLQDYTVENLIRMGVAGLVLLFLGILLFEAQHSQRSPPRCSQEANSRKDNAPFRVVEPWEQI

pKd: 6.00
Substance: BST2 (from UniProt Q10589)
